Measurements from patent US20220389097A1 (Genentech, published 2022).
Substitutions are numbered along the chain they refer to. Names and notes keep the numbering of the source.

B1: 3.10C2-H6/3.10C2-L1 Fab (Fab, V domains shown)
VH: EVQLVESGGGLVQPGGSLKLSCATSGFPFSNVWMHWVRQASGKGLEWVAHIKAKSDNYATYYAESVKGRFTISRDDSKNTIYLQMNSLKTEDTAVYYCTGLDYWGQGTTVTVSS
VL: DTVLTQSPLSLPVTPGEPASISCRSSKSLLGVRDITSLYWYLQKPGQSPQLLIYRMSNLASGVPDRFSGSGSETDFTLKISRVEAEDVGVYYCAQFLRYPYTFGQGTKVEIK
B2: 3.10C2-H2/3.10C2-L1 Fab (Fab, V domains shown)
VH: B1 VH with A49G
VL: B1 VL
B3: 3.10C2-H4/3.10C2-L1 Fab (Fab, V domains shown)
VH: B1 VH with T24A, V48I, A49G
VL: B1 VL
B4: 3.10C2-H7/3.10C2-L1 Fab (Fab, V domains shown)
VH: B1 VH with I81A
VL: B1 VL
B5: 3.10C2 Fab (Fab, V domains shown)
VH: EVQLVETGGSLVQPGKSLKLTCATSGFPFSNVWMHWVRQSPEKQLEWIAHIKAKSDNYATYYAESVKGRFTISRDDSKTSIYLQMNSLKEDDTAIYYCTGLDYWGQGVMVTVSS
VL: B1 VL with S7A, P12S, P18S, Q47K, R82E, A85T, Q105P, V109L, I111L
notes: also called 3.10C2 (3.10C2); Rat3.10C2
B6: h3.10C2.v1 Fab (Fab, V domains shown)
VH: B1 VH with V48I, N79T
VL: B1 VL with T2V, L4M, K27R, G31T, V32S, R33K, D34G, E73G, R98V
notes: also called 3.10C2-H1/3.27H7-L6
B7: Para.09 Fab with the 3.27H7 light chain (Fab, V domains shown)
VH: EVQLVETGGSLVQPGKSLRLTCATSGFPFSNVWLHWVRQSPEKHPEWVAHIKAKSDNYATYYAESVKGRFTISRDDSKSSVFLQMNSLKEEDTAIYYCTDILEYWGQGTLVTVSS
VL: DVVLTQAPLSVSVTPGESASISCRSSRSLLTSKGITSLYWYLQKPGMSPHLLIYRMSNLASGIPDRFSGSGSETDFTLKISEVEPEDVGVYYCAQFLVYPYTFGAGTKLELK
notes: Fab fragment; also called Para.09 (3.27H7); Para.09-L27H7
B8: hPara.09.v2 Fab (Fab, V domains shown)
VH: EVQLVESGGGLVQPGGSLKLSCATSGFPFSNVWLHWVRQASGKGPEWVAHIKAKSDNYATYYAESVKGRFTISRDDSKNTVYLQMNSLKTEDTAVYYCTDILEYWGQGTLVTVSS
VL: B1 VL with T2V, L4M, K27R, G31T, V32S, R33K, D34G, V63I, E73G, R98V
notes: also called Para.09-H5/3.27H7-L6
B9: hPara.09.v2 Q100P/V104L (antibody, human IgG1, V domains shown)
VH: B8 VH
VL: DVVMTQSPLSLPVTPGEPASISCRSSRSLLTSKGITSLYWYLQKPGQSPQLLIYRMSNLASGIPDRFSGSGSGTDFTLKISRVEAEDVGVYYCAQFLVYPYTFGPGTKLEIK
B10: h3.10C2.v1 hIgG1 N297G (antibody, V domains shown)
VH: B1 VH with V48I, N79T
VL: B9 VL with I63V, P105Q, L109V
notes: Human IgG1 N297G; also called h3.10C2.v1.huIgG1.N297G
B11: Para.09 Fab with the 3.18E5 light chain (Fab, V domains shown)
VH: B7 VH
VL: DTVLTQAPLSVSVTPGESASISCRSNKSLLGIRDITSLYWYLQKPGKSPQLLIYRMSNLASGVPDRFSGSGSETDFTLKISEVETEDVGVYYCAQFLRYPYTFGPGTKLELK
notes: also called Para.09 (3.18E5)
B12: Para.09 Fab with the 3.10C2 light chain (Fab, V domains shown)
VH: B7 VH
VL: B11 VL with V11L, N26S, I32V
notes: also called Para.09 (3.10C2)
B13: Para.09 Fab with the 3.50G1 light chain (Fab, V domains shown)
VH: B7 VH
VL: B11 VL with Y41F, K112Q
notes: also called Para.09 (3.50G1)
B14: 3.10C2 IgG (rat variable regions; captured by anti-CH1 or anti-human Fab chips) (antibody, V domains shown)
VH: B5 VH
VL: B11 VL with V11L, N26S, I32V
notes: also called parental 3.10C2 clone; 3.10C2 control

Target: T1, human TREM2-Fc (human, UniProt Q9NZC2 19-174)
T1 construct: also called hTREM2; not shown: Fc part (captured by anti-human IgG1 Fc or protein A)
T1 sequence: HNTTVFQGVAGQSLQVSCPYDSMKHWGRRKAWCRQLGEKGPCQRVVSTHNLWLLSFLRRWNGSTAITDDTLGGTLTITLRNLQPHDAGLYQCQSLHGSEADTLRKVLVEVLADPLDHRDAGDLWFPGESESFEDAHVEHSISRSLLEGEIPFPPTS
Test: SPR (Biacore T200), 37 C; TREM2-Fc on protein A chip, Fab in solution
Procedure: The humanized heavy chain variants were tested for affinity by combining the heavy chain variants with the 3.10C2-L1 light chain. These variants were expressed as Fab fragments, purified by protein A chromatography, and tested for affinity for TREM2-Fc coated on a protein A chip with a Biacore™ T200 apparatus.

Row | Binder | koff | kon
1 | B1 | 0.0013 s⁻¹ | 210000 M⁻¹ s⁻¹
2 | B2 | 0.0059 s⁻¹ | 520000 M⁻¹ s⁻¹
3 | B3 | 0.024 s⁻¹ | 1.2e+06 M⁻¹ s⁻¹
4 | B4 | 0.018 s⁻¹ | 1.2e+06 M⁻¹ s⁻¹
5 | B5 | 0.00019 s⁻¹ | 720000 M⁻¹ s⁻¹

Target: T1, human TREM2-Fc
Test: SPR (Biacore T200), 37 C; TREM2-Fc on protein A chip, soluble Fab
Procedure: (§1) Affinity of h3.10C2.v1 (FIGS. 9A-B) for human and cynomolgus TREM2 was determined by SPR in a Biacore™ T200 apparatus in two formats, both at 37° C. In one format TREM2-Fc was immobilized on protein A chips and soluble anti-TREM2 Fab fragments used as ligands. In the second format, anti-TREM2 IgG was immobilized on anti-CH1 Biacore™ chips and used soluble monomeric TREM2 as ligand.

Row | Binder | Kd | koff | kon
6 | B6 | 390 pM | 0.00057 s⁻¹ | 1.5e+06 M⁻¹ s⁻¹
7 | B7 | 15 pM | 3.5e-05 s⁻¹ | 2.3e+06 M⁻¹ s⁻¹
8 | B5 | 190 pM | 0.00018 s⁻¹ | 910000 M⁻¹ s⁻¹
9 | B8 | 21 pM | 6.1e-05 s⁻¹ | 3e+06 M⁻¹ s⁻¹

Target: T2, cynomolgus TREM2-Fc (cynomolgus monkey, UniProt A0A2K5UY34 49-204)
T2 construct: also called cyno TREM2; not shown: Fc part
T2 sequence: T1 sequence with A10E, W60R, L89F, F125V
Test: as above
Procedure: as §1

Row | Binder | Kd | koff | kon
10 | B6 | 430 pM | 0.00062 s⁻¹ | 1.4e+06 M⁻¹ s⁻¹
11 | B7 | 18 pM | 4.1e-05 s⁻¹ | 2.3e+06 M⁻¹ s⁻¹
12 | B5 | 220 pM | 0.0002 s⁻¹ | 910000 M⁻¹ s⁻¹
13 | B8 | 22 pM | 6.3e-05 s⁻¹ | 2.9e+06 M⁻¹ s⁻¹

Target: T3, human TREM2 on cells (human, UniProt Q9NZC2 19-230)
T3 sequence: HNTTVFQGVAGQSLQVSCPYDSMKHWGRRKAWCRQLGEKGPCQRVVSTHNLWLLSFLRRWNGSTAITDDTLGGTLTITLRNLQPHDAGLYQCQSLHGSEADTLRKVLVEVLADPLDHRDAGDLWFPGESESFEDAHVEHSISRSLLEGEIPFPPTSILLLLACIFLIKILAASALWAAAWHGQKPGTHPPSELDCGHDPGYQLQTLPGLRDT
Test: cell-based or functional assay

Row | Binder | EC50, Jurkat NFAT luciferase reporter cells | IC50, TREM2 shedding inhibition in Jurkat-NFAT reporter cells (sTREM2 ELISA)
14 | B9 | 0.0232 µg/mL | 0.114 µg/mL
15 | B10 | 0.076 µg/mL | 0.975 µg/mL

Target: T3, human TREM2 on cells
Test: cell-based or functional assay
Remark: another data set of the same source

Row | Binder | EC50, average X04 plaque intensity, human iPSC-derived microglia plaque assay (FIG. 24C) | EC50, survival of iPSC-derived microglia (FIG. 23E) | EC50, total Abeta plaque intensity, human iPSC-derived microglia plaque assay (FIG. 24B) | phospho-SYK/total SYK relative to anti-gD control, iPSC-derived microglia, 1 hour | phospho-SYK/total SYK relative to anti-gD control, iPSC-derived microglia, 4 hours
16 | B9 | 40000 pM | 190 pM | 770000 pM | 2 fold | > 10 fold
17 | B10 | 11000 pM | 350 pM | 130000 pM | – | –

Target: T1, human TREM2-Fc
Test: SPR (Biacore T200), 37 C; TREM2-Fc on anti-human IgG1 Fc chip, Fab in solution
Procedure: (§2) Briefly, clone variants were expressed as Fab fragments and purified by anti-CH1 affinity chromatography followed by size exclusion chromatography. TREM2-Fc antigens were immobilized on anti-human IgG1 Fc Biacore™ chips and soluble Para.09 variant and 3.10C2 clone Fab fragments were bound to immobilized TREM2 at 37° C.

Row | Binder | Kd | koff | kon
18 | B7 | 4.2 pM | 2.7e-05 s⁻¹ | 6.3e+06 M⁻¹ s⁻¹
19 | B5 | 200 pM | 0.00017 s⁻¹ | 850000 M⁻¹ s⁻¹
20 | B11 | 5 pM | 2.8e-05 s⁻¹ | 5.6e+06 M⁻¹ s⁻¹
21 | B12 | 3.8 pM | 2.7e-05 s⁻¹ | 7.1e+06 M⁻¹ s⁻¹
22 | B13 | 1.1 pM | 5.8e-06 s⁻¹ | 5.1e+06 M⁻¹ s⁻¹

Target: T2, cynomolgus TREM2-Fc
Test: as above
Procedure: as §2

Row | Binder | Kd | koff | kon
23 | B7 | 2.5 pM | 1.2e-05 s⁻¹ | 4.8e+06 M⁻¹ s⁻¹
24 | B5 | 220 pM | 0.00015 s⁻¹ | 680000 M⁻¹ s⁻¹
25 | B11 | 2.4 pM | 8.9e-06 s⁻¹ | 3.8e+06 M⁻¹ s⁻¹
26 | B12 | 1.6 pM | 7.8e-06 s⁻¹ | 4.8e+06 M⁻¹ s⁻¹
27 | B13 | 2 pM | 7.9e-06 s⁻¹ | 3.9e+06 M⁻¹ s⁻¹

Target: T4, soluble monomeric human TREM2 (human, UniProt Q9NZC2 19-174, limits assumed)
T4 construct: Not the same as shed sTREM2; also called soluble monomeric TREM2
T4 sequence: T1 sequence
Test: SPR (Biacore T200), 37 C; IgG on anti-CH1 chip, soluble monomeric TREM2

Row | Binder | Kd | koff | kon
28 | B10 | 420 pM | 0.00035 s⁻¹ | 840000 M⁻¹ s⁻¹
29 | B14 | 120 pM | 9.6e-05 s⁻¹ | 780000 M⁻¹ s⁻¹
